The target of test [1] is biotinylated His-tagged TGF-β1 LAP C4S (Homo sapiens (Human)) (UniProt P01137). As to the kind of experiment: ELISA, neutravidin plate with biotinylated His-tagged TGF-β1 LAP C4S; antibody dilution 1:1,000; fluorescent secondary detection. (In general: An ELISA detects its analyte on a solid surface through an enzyme-linked reagent.)
The target is the same in test [2]. As to the kind of experiment: ELISA, neutravidin plate with biotinylated His-tagged TGF-β1 LAP C4S; antibody dilution 1:5,000; fluorescent secondary detection.
Test [3] has the same target. Description: ELISA, neutravidin plate with biotinylated His-tagged TGF-β1 LAP C4S; antibody dilution 1:10,000; fluorescent secondary detection.
Test [4] concerns the target human GARP-TGF-β1 LAP (membrane-bound GARP with TGF-β1 LAP, on 300.19 cells) (human) (UniProt Q14392). Description: flow cytometry on 300.19 cells stably expressing the complex; MFI minus control 300.19 cells; one-site binding fit.
In test [5] the target is human GARP-proTGF-β1 (membrane-bound GARP with proTGF-β1, on transfected cells) (human) (UniProt Q14392). The test is described as above.
The target of test [6] is proTGF-β1 complexed with sGARP (Homo sapiens (Human)) (UniProt Q14392). As to the kind of experiment: ELISA with increasing concentrations of MAB246.
Test [7] addresses TGF-β1 LAP complexed with sGARP (Homo sapiens (Human)) (UniProt Q14392). As to the kind of experiment: ELISA with increasing concentrations of MAB246.
For test [8], the target named is LTBP1-proTGFβ1 (protein complex of the ELISA of Example 35) (UniProt Q14766). Description: ELISA with increasing concentrations of MAB246.
Test [9] has as its target human LTBP1 plus proTGF-β1, expressed by transiently transfected SW480 or HEK293 cells (human) (UniProt Q14766). As to the kind of experiment: cell-based or functional assay.
The target of test [10] is human GARP-proTGF-β1 (membrane-bound GARP with proTGF-β1, on transfected cells) (human) (UniProt Q14392). As to the kind of experiment: cell-based or functional assay.

In general, Kd refers to a measure of binding affinity in units of concentration. Read a high Kd as a looser complex.

Chain of biotinylated His-tagged TGF-β1 LAP C4S (Homo sapiens (Human)) (P01137 other isoform, or with tags, fused parts or gaps limits assumed): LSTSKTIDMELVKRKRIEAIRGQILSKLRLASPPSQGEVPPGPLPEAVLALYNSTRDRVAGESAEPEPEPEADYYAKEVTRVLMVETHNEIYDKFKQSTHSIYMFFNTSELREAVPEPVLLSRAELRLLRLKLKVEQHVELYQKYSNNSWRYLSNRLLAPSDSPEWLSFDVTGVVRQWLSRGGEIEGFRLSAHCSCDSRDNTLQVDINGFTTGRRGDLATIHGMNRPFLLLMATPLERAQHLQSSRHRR
Chain of human LTBP1 plus proTGF-β1, expressed by transiently transfected SW480 or HEK293 cells (human) (Q14766 347-1721 limits assumed, chain 1 of 2): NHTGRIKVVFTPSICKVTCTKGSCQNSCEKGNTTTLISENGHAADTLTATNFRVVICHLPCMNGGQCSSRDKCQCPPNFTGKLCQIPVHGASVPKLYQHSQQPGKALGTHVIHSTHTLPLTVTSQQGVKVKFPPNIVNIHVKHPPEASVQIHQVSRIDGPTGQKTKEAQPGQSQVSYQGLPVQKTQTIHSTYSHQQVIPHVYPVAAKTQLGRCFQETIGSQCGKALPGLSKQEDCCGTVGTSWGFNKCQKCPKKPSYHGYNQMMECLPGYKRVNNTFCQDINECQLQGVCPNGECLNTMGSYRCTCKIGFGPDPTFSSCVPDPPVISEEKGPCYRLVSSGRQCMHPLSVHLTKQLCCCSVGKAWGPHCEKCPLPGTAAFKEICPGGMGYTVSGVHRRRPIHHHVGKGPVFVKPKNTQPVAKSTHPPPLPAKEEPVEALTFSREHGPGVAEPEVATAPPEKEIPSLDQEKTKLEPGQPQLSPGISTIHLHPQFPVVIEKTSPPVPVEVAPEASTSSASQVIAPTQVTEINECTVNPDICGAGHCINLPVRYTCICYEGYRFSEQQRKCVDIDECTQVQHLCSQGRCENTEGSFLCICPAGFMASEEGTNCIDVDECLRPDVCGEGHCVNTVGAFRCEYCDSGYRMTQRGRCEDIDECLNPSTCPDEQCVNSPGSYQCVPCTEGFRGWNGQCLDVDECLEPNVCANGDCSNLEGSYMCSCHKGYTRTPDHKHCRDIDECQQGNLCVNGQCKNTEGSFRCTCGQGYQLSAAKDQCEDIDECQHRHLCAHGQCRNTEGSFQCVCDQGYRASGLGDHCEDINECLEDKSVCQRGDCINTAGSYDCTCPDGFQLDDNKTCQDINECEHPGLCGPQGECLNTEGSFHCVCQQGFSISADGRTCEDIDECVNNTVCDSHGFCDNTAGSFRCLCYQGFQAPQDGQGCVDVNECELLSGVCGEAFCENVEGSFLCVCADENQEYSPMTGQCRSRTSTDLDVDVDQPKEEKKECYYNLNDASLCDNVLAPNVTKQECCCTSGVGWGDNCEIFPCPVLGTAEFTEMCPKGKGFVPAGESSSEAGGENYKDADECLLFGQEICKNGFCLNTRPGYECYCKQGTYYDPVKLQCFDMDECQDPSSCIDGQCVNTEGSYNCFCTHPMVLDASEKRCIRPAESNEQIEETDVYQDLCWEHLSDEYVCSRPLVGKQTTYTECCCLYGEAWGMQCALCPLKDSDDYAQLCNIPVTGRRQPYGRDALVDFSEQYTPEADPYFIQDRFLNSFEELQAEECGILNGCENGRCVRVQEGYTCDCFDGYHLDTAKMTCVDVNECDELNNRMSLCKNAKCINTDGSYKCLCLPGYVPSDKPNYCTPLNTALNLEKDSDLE
Chain of human LTBP1 plus proTGF-β1, expressed by transiently transfected SW480 or HEK293 cells (human) (chain, as listed by the source limits assumed, chain 2 of 2): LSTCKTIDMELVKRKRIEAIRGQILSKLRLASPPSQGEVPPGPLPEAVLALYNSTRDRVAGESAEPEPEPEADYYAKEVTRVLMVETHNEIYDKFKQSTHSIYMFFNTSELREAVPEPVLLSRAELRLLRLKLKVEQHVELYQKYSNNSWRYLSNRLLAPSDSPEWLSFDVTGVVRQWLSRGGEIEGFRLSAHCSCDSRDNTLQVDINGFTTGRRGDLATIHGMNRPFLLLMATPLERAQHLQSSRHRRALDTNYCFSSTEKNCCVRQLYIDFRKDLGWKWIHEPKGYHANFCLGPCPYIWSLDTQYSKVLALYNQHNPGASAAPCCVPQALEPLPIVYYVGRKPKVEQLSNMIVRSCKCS
Chain of human GARP-proTGF-β1 (membrane-bound GARP with proTGF-β1, on transfected cells) (human) (Q14392 20-662 limits assumed, chain 1 of 2): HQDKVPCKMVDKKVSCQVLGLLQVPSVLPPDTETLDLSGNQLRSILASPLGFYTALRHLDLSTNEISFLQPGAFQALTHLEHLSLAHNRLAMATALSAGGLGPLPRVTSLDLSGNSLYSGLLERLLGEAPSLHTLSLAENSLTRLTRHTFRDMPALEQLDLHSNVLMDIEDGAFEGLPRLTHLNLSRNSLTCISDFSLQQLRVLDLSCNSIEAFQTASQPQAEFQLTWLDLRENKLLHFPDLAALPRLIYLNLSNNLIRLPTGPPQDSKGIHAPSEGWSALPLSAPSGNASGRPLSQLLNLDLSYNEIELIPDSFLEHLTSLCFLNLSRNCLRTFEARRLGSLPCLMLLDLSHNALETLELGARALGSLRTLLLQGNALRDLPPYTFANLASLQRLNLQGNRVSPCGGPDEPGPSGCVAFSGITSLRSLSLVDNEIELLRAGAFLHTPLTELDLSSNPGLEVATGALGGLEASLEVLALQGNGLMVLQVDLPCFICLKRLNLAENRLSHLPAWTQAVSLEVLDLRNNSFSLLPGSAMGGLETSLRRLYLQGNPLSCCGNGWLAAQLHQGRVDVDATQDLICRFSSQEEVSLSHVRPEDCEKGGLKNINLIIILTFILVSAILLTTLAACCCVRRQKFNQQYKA
Chain of human GARP-TGF-β1 LAP (membrane-bound GARP with TGF-β1 LAP, on 300.19 cells) (human) (Q14392 20-662 limits assumed, chain 1 of 2): as above
Chain of human GARP-TGF-β1 LAP (membrane-bound GARP with TGF-β1 LAP, on 300.19 cells) (human) (chain, as listed by the source limits assumed, chain 2 of 2): as the sequence (P01137 other isoform, or with tags, fused parts or gaps limits assumed) above, with S4C counted along it
Chain of TGF-β1 LAP complexed with sGARP (Homo sapiens (Human)) (Q14392 18-627 limits assumed, chain 1 of 2): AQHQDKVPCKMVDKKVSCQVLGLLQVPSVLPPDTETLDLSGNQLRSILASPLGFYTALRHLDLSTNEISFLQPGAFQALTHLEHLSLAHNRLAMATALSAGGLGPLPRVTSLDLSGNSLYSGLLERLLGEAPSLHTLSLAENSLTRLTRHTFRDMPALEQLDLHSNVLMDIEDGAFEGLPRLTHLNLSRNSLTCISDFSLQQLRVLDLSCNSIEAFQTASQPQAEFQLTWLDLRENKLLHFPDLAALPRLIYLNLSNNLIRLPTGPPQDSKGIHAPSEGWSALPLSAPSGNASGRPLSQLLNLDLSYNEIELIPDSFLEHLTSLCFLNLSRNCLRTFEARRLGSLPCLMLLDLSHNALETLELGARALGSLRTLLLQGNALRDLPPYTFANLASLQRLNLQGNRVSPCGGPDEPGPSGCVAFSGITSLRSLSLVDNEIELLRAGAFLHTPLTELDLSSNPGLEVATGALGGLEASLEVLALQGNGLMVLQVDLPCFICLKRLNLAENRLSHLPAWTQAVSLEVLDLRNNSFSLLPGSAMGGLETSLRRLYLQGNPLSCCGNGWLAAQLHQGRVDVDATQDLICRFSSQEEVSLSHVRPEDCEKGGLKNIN
Chain of TGF-β1 LAP complexed with sGARP (Homo sapiens (Human)) (chain, as listed by the source limits assumed, chain 2 of 2): as the sequence (P01137 other isoform, or with tags, fused parts or gaps limits assumed) above, with S4C counted along it
Chain of proTGF-β1 complexed with sGARP (Homo sapiens (Human)) (Q14392 18-627 limits assumed, chain 1 of 2): as the sequence (Q14392 18-627 limits assumed, chain 1 of 2) above
Chain of LTBP1-proTGFβ1 (protein complex of the ELISA of Example 35) (Q14766 347-1721 limits assumed, chain 1 of 2): as the sequence (Q14766 347-1721 limits assumed, chain 1 of 2) above

Take “9016.2 (mouse monoclonal anti-TGF-β LAP antibody, Abcam, Cambridge, UK)”: the values for the RFU in [1], in test [2] and in [3] were 14600 RFU, 4540 RFU and 3310 RFU, respectively.

“MAB246 (R&D Systems, Minneapolis, Minn.), mouse IgG1 anti-TGF-β1 LAP antibody, clone 27235”: the Kd in test [4] worked out at 0.08 µg/mL; in test [5], 35.1 µg/mL; in test [6] it was 0.91 nM; in [7], 0.14 nM; in test [8] it was 0.24 nM. The RFU is 26800 RFU in test [1], 24900 RFU in test [2] and 18800 RFU in test [3]. In addition, in [9], the RLUs (TMLC luciferase), with αvβ6-expressing cells and 20 or 50 µg/ml MAB246 was 3.5 fold. In addition, the reporter activity (TMLC luciferase, RLU), 20 µg/ml MAB246 in test [9] stood at 2 fold. In addition, in test [9], the reporter activity (TMLC luciferase, RLU), 50 µg/ml MAB246 is > 2.5 fold. For the same substance, the reporter activity (TMLC luciferase, RLU), 20 or 50 µg/ml MAB246 in test [10] is < 2 fold.

Regarding “MAB2463 (R&D Systems, Minneapolis, Minn.), mouse IgG1 anti-TGF-β1 LAP antibody, clone 27232”, the Kd is 0.11 µg/mL in [4] and 0.19 µg/mL in test [5]. Further, the RFU worked out at 57500 RFU in [1], 42100 RFU in [2] and 32000 RFU in test [3].

In the case of “αvβ6 integrin (on cells, e.g. SW480-β6 cells) (from UniProt P06756 31-1048; P18564 22-788) (receptor)”, the RLUs (TMLC luciferase), no antibody in test [9] came out at 2.5 fold.

(Values after patent publication US20170073406A1.)
